# pKd: −log10 of the molar value.
# Tests used:
# [1] = biological target: HER2 및 HER3 (ErbB-2 및 ErbB-3 양성 세포 상에 함께 발현) (human) (UniProt P04626); assay: steady-state cell affinity, 125I-labelled IgG on SK-BR-3 cells at 4 C; mean of 3 assays
# [2] = biological target: HER2 및 HER3 (ErbB-2 및 ErbB-3 양성 세포 상에 함께 발현) (human) (UniProt P04626); assay: steady-state cell affinity, 125I-labelled IgG on BT-474 cells at 4 C; mean of 3 assays
substance,measurement,setting,value
PB4188 (bispecific antibody),pKd,[1],8.70
same,pKd,[2],8.49
